Assay results reported in publication PMC9510766.

Assays:
[1] = target: recombinant Cas2C of Leptospira interrogans serovar Copenhageni (rLinCas2C) (L. interrogans serovar Copenhageni strain Fiocruz L1-130); assay: SEC; size-exclusion chromatography of the Ni-NTA purified recombinant protein; conditions not shown
[2] = target: recombinant Cas2C of Leptospira interrogans serovar Lai (rLinCas2C_Lai) (L. interrogans serovar Lai); assay: as above

recombinant Cas2C of Leptospira interrogans serovar Copenhageni (rLinCas2C) (enzyme)
stoichiometry N [1]: 2

recombinant Cas2C of Leptospira interrogans serovar Lai (rLinCas2C_Lai) (enzyme)
stoichiometry N [2]: 3
